Test results from the supplement of paper PMC10126150.
± gives the standard deviation of the averaged measurements.

test system: ATP; assay: switch fluorescence ratio, 500 uM ATP over buffer (Cy3 cluster intensity, sum of 5 cycles each) (fold (ratio)); higher = stronger signal-on switching upon ATP binding; sequences stand for … in TCGTCGGCAGCGTCAGATGTGTATAAGAGACAGTTTTTTTTTTTTTTTTTTTTTTTTT…TC; conditions: aptamer strand: ATP DNA aptamer (quencher-CACCTGGGGGAGTATTGCGGAGGAAGG + anchor), 100 nM annealed; ATP concentration: 500 uM
Summary of the method: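 Cy3-labelled switching-strand clusters on a modified Illumina MiSeq flow-cell were annealed to 100 nM quencher-labelled ATP aptamer, imaged in selection buffer, then imaged after 15 min with 500 uM ATP at 22 °C. Five buffer/ATP cycles ran, with NaOH stripping and re-annealing between them. The fluorescence ratio is summed target-cycle over summed buffer-cycle Cy3 intensity per cluster, averaged per switch-domain sequence. Clusters outside 100-1000 RFU were excluded.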
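Further: ATP exposure 15 min at 22 °C before imaging.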

| Sequence | switch fluorescence ratio |
| --- | --- |
| GTTACTTGCT | 1.01 ± 0.059 |
| TTTGTTCACG | 0.991 ± 0.01 |
| TTGATGAAAA | 1 ± 0.038 |
| AAACACGTTG | 1.018 ± 0.0094 |
| GCATCCGTCG | 1.04 ± 0.031 |
| TCTGAGTAGG | 1 ± 0.037 |
| AGGCGATATA | 1 ± 0.024 |
| GCTAATGTTT | 0.998 ± 0.031 |
| AAAAGGATGG | 0.979 ± 0.021 |
| GGGGGGGCAG | 0.986 ± 0.017 |
| GACGGGGTAG | 1 ± 0.048 |
| GCGGGCCGGG | 0.988 ± 0.058 |
| AGAATTAAGG | 1.01 ± 0.045 |
| CTTTGGGGGT | 0.979 ± 0.019 |
| TAGCCAGCTC | 0.996 ± 0.034 |
| AGCAGAGTGC | 1.02 ± 0.055 |
| TTTATCGTTT | 1 ± 0.032 |
| GGTTGAGTG | 0.977 ± 0.0033 |
| CCCGGGGGCT | 1.41 ± 0.032 |
| ATGAGGTTGC | 0.978 ± 0.011 |
| AGAACAGGTG | 3.18 ± 0.27 |
| TTTCAATAGT | 1.09 ± 0.14 |
| GATTTTTAGT | 1.002 ± 0.0016 |
| AAAGGGGGGT | 0.989 ± 0.025 |
| GTTTGGCATA | 1.14 ± 0.19 |

| Sequence | switch fluorescence ratio |
| --- | --- |
| ACTTAGGCG | 1.05 ± 0.086 |
| TTACGATGTG | 1.018 ± 0.0091 |
| GCTCGACTTT | 1.02 ± 0.012 |
| CGTGTAAATA | 0.995 ± 0.015 |
| TGGGGATAAC | 0.969 ± 0.034 |
| TGTTTGAAGG | 0.995 ± 0.017 |
| ATGGGTCCAG | 1.01 ± 0.019 |
| ATAAGTGTTG | 0.979 ± 0.017 |
| GCCGGTCTGT | 1.01 ± 0.03 |
| CTCGCCAGGG | 1.41 ± 0.032 |
| TTACAGGGG | 1.18 ± 0.027 |
| GCATAAAGGG | 0.989 ± 0.019 |
| TAGTTGAATT | 0.998 ± 0.014 |
| CAGCAGGGAG | 1.1 ± 0.096 |
| TTTGAGGGTC | 0.991 ± 0.037 |
| GAGGGGTTGG | 0.964 ± 0.033 |
| ATTTTAATAA | 0.99 ± 0.017 |
| GATGGGATGG | 0.993 ± 0.039 |
| ACGATCGAAA | 1.24 ± 0.019 |
| GCTTTTTCTT | 1.018 ± 0.004 |
| AAGAGTCGTA | 0.969 ± 0.027 |
| AGGTTTGGTT | 1.01 ± 0.04 |
| TTGTTAGCCT | 1.05 ± 0.019 |
| GGTGCATATT | 1.06 ± 0.081 |
| GAACCGGATG | 0.9997 ± 0.0074 |

| Sequence | switch fluorescence ratio |
| --- | --- |
| GAGCTGGAGG | 1 ± 0.017 |
| GAGGTACCGC | 1.05 ± 0.029 |
| TTAAGTGGGG | 1.02 ± 0.011 |
| GGCTGAAGTT | 0.994 ± 0.022 |
| AGCGCCGCGT | 1.09 ± 0.13 |
| CTGGTTAACT | 1.024 ± 0.0048 |
| AGGAGTATTT | 1 ± 0.024 |
| ATTCGGGAAG | 1.003 ± 0.0078 |
| TATACTCAGG | 1.05 ± 0.029 |
| GCATTCAATG | 1.01 ± 0.024 |
| CAGTTATTGG | 0.978 ± 0.038 |
| ATGGGGAAAT | 0.984 ± 0.021 |
| CATGCGGCCG | 0.992 ± 0.02 |
| AGTTTGGCAC | 1.05 ± 0.057 |
| AATGTTATTA | 0.995 ± 0.048 |
| AAGTGAAGCT | 1 ± 0.015 |
| GCGTGCGGGC | 1.03 ± 0.043 |
| GTCAATGGTG | 0.9901 ± 0.0074 |
| ATTAACTGCT | 0.9932 ± 0.0058 |
| TAGTTAATAT | 1 ± 0.019 |
| CTTACAGTTT | 1 ± 0.011 |
| TTATTCAAGG | 0.99 ± 0.017 |
| ATAGGTAGGG | 0.984 ± 0.0086 |
| CAGGCGAGGG | 0.9905 ± 0.0078 |
| GGGGGTGCAT | 0.9638 ± 0.0088 |

| Sequence | switch fluorescence ratio |
| --- | --- |
| GATGTCCACG | 0.9874 ± 0.0051 |
| AGTCGGTGTG | 0.963 ± 0.0099 |
| CCGGGAAGGG | 1.05 ± 0.012 |
| CGGAGTTAGC | 1.13 ± 0.028 |
| CAATGAGTCT | 1.03 ± 0.035 |
| TTATTTCGTT | 0.989 ± 0.026 |
| GGGCATGTTA | 0.9692 ± 0.0032 |
| GGGGGCCCCG | 1 ± 0.013 |
| CGAATACATA | 1.1 ± 0.011 |
| ATGATGACGA | 1.06 ± 0.11 |
| CGGTCATCTT | 0.9991 ± 0.0047 |
| ACTAGGTCAT | 1.03 ± 0.017 |
| TTAAAGGTAT | 1.11 ± 0.063 |
| TTGTAATCAG | 0.966 ± 0.045 |
| TTATCTAAGT | 1 ± 0.036 |
| GAGGAAGGGG | 1 ± 0.016 |
| TACTGTGTTA | 0.979 ± 0.026 |
| AAGTTGGGGA | 0.996 ± 0.021 |
| ATGTGTCTAT | 0.998 ± 0.036 |
| TAAAACAGGA | 0.97 ± 0.017 |
| GGCATCTGGG | 1.026 ± 0.0011 |
| TAGGCGAGTT | 0.98 ± 0.0021 |
| ACCGAGGCTT | 1.45 ± 0.051 |
| GGGTAGGATA | 1.01 ± 0.012 |
| TTTGCAATTG | 1.13 ± 0.062 |

| Sequence | switch fluorescence ratio |
| --- | --- |
| TGAGTGATTG | 1.04 ± 0.052 |
| CCTCGTGTTT | 1.08 ± 0.0061 |
| ATTGGCACGG | 0.986 ± 0.034 |
| GGACTGTGGG | 1.02 ± 0.044 |
| TGTAGTAACG | 0.982 ± 0.012 |
| GGTTTGCAAG | 0.986 ± 0.018 |
| GCATGCTTAA | 0.9876 ± 0.006 |
| GGGGTGTTAG | 1.02 ± 0.012 |
| TGGGTATAAT | 1.014 ± 0.0096 |
| CTGTATCTTT | 1.02 ± 0.036 |
| GGTGGGGTGT | 0.982 ± 0.05 |
| CAAATGGCTG | 1.04 ± 0.074 |
| TTTTTCCCGG | 1.17 ± 0.23 |
| AAATGCGTTT | 0.979 ± 0.019 |
| TTATAGGGAG | 0.97261 ± 0.00039 |
| TCTGGTCGCT | 1.018 ± 0.01 |
| TTTTGGGCTG | 1 ± 0.067 |
| TTCGATAATC | 1.15 ± 0.16 |
| ATGGGGGTCA | 0.998 ± 0.015 |
| GAAGTTGTCA | 1.02 ± 0.047 |
| GGGTTGTCGA | 0.952 ± 0.011 |
| TAGGGATAGT | 0.9986 ± 0.0052 |
| GGCCTTTTAA | 1.04 ± 0.029 |
| TCAGGAGGGC | 0.999 ± 0.016 |
| ATTACGAAGA | 1.01 ± 0.011 |

| Sequence | switch fluorescence ratio |
| --- | --- |
| CGGATATATA | 1.08 ± 0.049 |
| GTTATCCGGG | 1.01 ± 0.036 |
| CGGAATTTTT | 0.971 ± 0.016 |
| AAGGCGCGGG | 0.9891 ± 0.0081 |
| TGCTGCCTAC | 2.38 ± 1.6 |
| ACTTTTACTC | 1.16 ± 0.014 |
| TAGATGGTAG | 0.973 ± 0.016 |
| AAGGGGGGCC | 1.01 ± 0.089 |
| AATCGATTCC | 1.04 ± 0.034 |
| ATGAAAGGCT | 1.02 ± 0.0022 |
| CGGGTAAATA | 1.011 ± 0.0084 |
| AGGGGTCTTA | 0.978 ± 0.02 |
| CTCCGGGGTT | 1.85 ± 0.35 |
| AACAACTTTT | 1.04 ± 0.042 |
| TCTTGTCGGT | 1 ± 0.034 |
| TCTTTTAAGT | 0.97 ± 0.033 |
| TTTAATTAAT | 0.983 ± 0.023 |
| GGGTTTAATG | 0.96 ± 0.016 |
| AAAAATTAAG | 1.03 ± 0.029 |
| GTAGTTTTTT | 1.04 ± 0.032 |
| TTGGCGGGAC | 0.9819 ± 0.0036 |
| TTTTGACGGA | 0.994 ± 0.027 |
| TTGGGGAGCT | 1.04 ± 0.014 |
| ATAGAATTGG | 1.02 ± 0.021 |
| GCGTACGGCG | 0.993 ± 0.054 |

| Sequence | switch fluorescence ratio |
| --- | --- |
| AATAAGATGT | 0.999 ± 0.066 |
| ATATTCTTTG | 0.997 ± 0.016 |
| TAATATAACC | 1.04 ± 0.014 |
| GTTGTTCAAA | 0.989 ± 0.015 |
| TCATGGTCCC | 1.02 ± 0.018 |
| TTTTCTGCCG | 1.03 ± 0.045 |
| GGCTGTACTT | 1.03 ± 0.047 |
| TTAACGTAGA | 1.04 ± 0.015 |
| GGTGCACGGT | 0.978 ± 0.051 |
| AGCCTAATGG | 0.995 ± 0.041 |
| CGGGGCGCGA | 1.1 ± 0.049 |
| CCAGTACTGA | 1.021 ± 0.0094 |
| CGGTATTCTG | 1.01 ± 0.052 |
| GCTATATGGC | 1.01 ± 0.024 |
| TTATGGGGGA | 1.01 ± 0.018 |
| TAACTATATA | 1.06 ± 0.014 |
| TTTTACTTAC | 1.25 ± 0.059 |
| AAAGTATATG | 0.983 ± 0.029 |
| GGGTATGTA | 1.01 ± 0.03 |
| GGGCCGGTTT | 1 ± 0.026 |
| TACGGTAGGA | 0.9836 ± 0.006 |
| GAGTAAAGTT | 0.982 ± 0.02 |
| AACGCCGCAT | 1.858 ± 0.0036 |
| GGGGAATTAT | 1.03 ± 0.0058 |
| GAGGGAAGAG | 1.01 ± 0.021 |

| Sequence | switch fluorescence ratio |
| --- | --- |
| GCCGAAGCTG | 1.08 ± 0.003 |
| TACATTCGTC | 1.07 ± 0.075 |
| ATTCGGGACC | 0.973 ± 0.019 |
| AAATTTACAG | 1.03 ± 0.04 |
| CAAGTGTTCG | 0.996 ± 0.03 |
| ATGATATTTG | 1.009 ± 0.006 |
| CGTTTATTG | 0.9967 ± 0.0085 |
| GATTTGTAGG | 1.01 ± 0.0069 |
| TGGTTGCGTG | 1 ± 0.015 |
| TATTGGGTCA | 0.996 ± 0.03 |
| TACAGCTTCT | 1.005 ± 0.0065 |
| CCCTGTCATC | 2.1 ± 1.4 |
| TTGTGTCTGC | 0.999 ± 0.011 |
| AGGGGAAATG | 0.9645 ± 0.0024 |
| CGACGAGGGG | 1 ± 0.03 |
| CGTATAAAAA | 0.971 ± 0.068 |
| AATTGTATGG | 1.04 ± 0.044 |
| CATATGTCTG | 0.994 ± 0.015 |
| GATTGTATCA | 0.99 ± 0.014 |
| GCCCATGAGT | 1.01 ± 0.011 |
| AGTAATGTAG | 1 ± 0.037 |
| AGGGGGAAAA | 1.47 ± 0.69 |
| TTCTGGGGGG | 0.991 ± 0.027 |
| TACGTGGTTG | 0.99 ± 0.014 |
| AAGGGCAGTA | 0.998 ± 0.01 |
